Results on 133 substances are retold here after the supplement of paper PMC12042874.

± gives the uncertainty stated by the source.

This data set can be described thus: amyloid nucleation score (Sup35N fusion, yeast selection) (log enrichment); library NNK3; higher = more nucleation; inactive = no reads after selection. In short, it runs like this:
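On medium lacking adenine and uracil, psi-negative yeast expressing peptides of 20 random codons fused to Sup35N were grown 7 days at 30°C after a 24-hour induction with 100 μM copper sulfate. Illumina sequencing of input and output plasmid inserts gave the reads, and sequences under 100 input reads were excluded. The nucleation score is the DiMSum log enrichment of output over input reads, centred on the mode score of non-aggregating sequences.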
On to VWYVSLTMIWLGSMALGFAR, for which the amyloid nucleation score result is “inactive”.

For VYDLVT, the amyloid nucleation score entry is “inactive”.

Substance VYFMCVQHWLVSGHPDPLNE registered an amyloid nucleation score of -0.246 ± 0.69.

Turning to VYGIQRVMGRLWIMNVWVPF, the amyloid nucleation score result is “inactive”.

VYGLVRLALSAINDYEDYNL: the amyloid nucleation score entry is “inactive”.

On to VYGSQGYRGRCFHLCYYYRS, for which the amyloid nucleation score entry was “inactive”.

For VYGWMVVHVGRLWTWLHRLL, the amyloid nucleation score result was “inactive”.

Turning to VYHFSGWCRHSCSSLQKSHD, the amyloid nucleation score entry is “inactive”.

With VYHTYVVLMGGHLPTSLGVT, the amyloid nucleation score was determined as 1.8 ± 0.078.

The substance VYISESVQRMYSLCTFSSLD registered an amyloid nucleation score of 1.18 ± 0.085.

With VYISFGFLILFLFSEFLPCV, the amyloid nucleation score entry is “inactive”.

Regarding VYRFGMVLRNVHLFRLLIGG, the amyloid nucleation score entry is “inactive”.

As for VYRGLQWECLDGIVAFRRER, the amyloid nucleation score entry is “inactive”.

With VYRIARMAQHLIRWKNR, the amyloid nucleation score is 0.187 ± 0.7.

On to VYRQVLRET, for which the amyloid nucleation score entry was “inactive”.

As for VYSLE, the amyloid nucleation score entry was “inactive”.

Regarding VYSLMGS, the amyloid nucleation score result is “inactive”.

In the case of VYSTVF, the amyloid nucleation score result was “inactive”.

Regarding VYTTS, the amyloid nucleation score result is “inactive”.

With VYVFAQ, the amyloid nucleation score result was “inactive”.

Take VYVHLRNLQSL: the amyloid nucleation score result is “inactive”.

In the case of VYYFRQLFPICIDNQARTWC, the amyloid nucleation score entry is “inactive”.

The substance VYYSWVICSMERTKSWSMSS gave an amyloid nucleation score of -0.227 ± 0.75.

In the case of WAIGQLYFMRILV, the amyloid nucleation score entry is “inactive”.

Take WASDNVEGDWWYWW: the amyloid nucleation score is 0.017 ± 0.57.

Turning to WAVYVGVL, the amyloid nucleation score result is “inactive”.

WCCFSWKVLRHGLTSACGC displayed an amyloid nucleation score of 1.31 ± 0.11.

Substance WCCGY showed an amyloid nucleation score of 0.774 ± 0.27.

With WCGVFWLVVMAY, the amyloid nucleation score result was “inactive”.

Consider WCKVRYSTNMVTSTSATLVA, for which the amyloid nucleation score result was “inactive”.

As for WCPTGEYRKCYNMSFARW, the amyloid nucleation score entry was “inactive”.

Turning to WDGYCSRQDRLRFAYRLGVG, the amyloid nucleation score entry is “inactive”.

WDKSLSVRTQVCHNRDS: the amyloid nucleation score result is “inactive”.

With WDMWPGI, the amyloid nucleation score result is “inactive”.

Regarding WECRDETSCARVVFTGLFR, the amyloid nucleation score result was “inactive”.

Consider WEPYTCIYC, for which the amyloid nucleation score result is “inactive”.

Regarding WFAGGHGKESIINWHYCQYM, the amyloid nucleation score result is “inactive”.

Consider WFCVLMDSAWDCRVIGGGGR, for which the amyloid nucleation score amounted to 1.1 ± 0.13.

As for WFFMTCNGCFDHGGVKCLRS, the amyloid nucleation score entry was “inactive”.

In the case of WFMREAWIWSAPFWPWIRNT, the amyloid nucleation score result is “inactive”.

WFMVIAVCMSAFESKLARFH: the amyloid nucleation score result was “inactive”.

Take WFSNVGVVEVASSRCREWGI: the amyloid nucleation score entry was “inactive”.

For the substance WFTQERHSVPLLIWMGLRRQ, the amyloid nucleation score was 2.03 ± 0.075.

For the substance WFWRVNIMKTIGLSHSRHEG, the amyloid nucleation score entry was “inactive”.

Regarding WGDDGNTFYE, the amyloid nucleation score entry was “inactive”.

Consider WGESNVSTIV, for which the amyloid nucleation score result is “inactive”.

As for WGFLQLHEPS, the amyloid nucleation score entry was “inactive”.

For the substance WGFRWNKCLNLAQPWLMALS, the amyloid nucleation score result was “inactive”.

As for WGFVIIYELKNLMCVMRPPS, the amyloid nucleation score entry was “inactive”.

With WGGVGKKMKRQRTAGTSRSG, the amyloid nucleation score result is “inactive”.

WGICFVITYNIKIKYDHLMS yielded an amyloid nucleation score of 1.18 ± 0.081.

Take WGITA: the amyloid nucleation score entry is “inactive”.

As to WGSGY, the amyloid nucleation score entry is “inactive”.

Take WGVGTPVRLWFIEANPVGHV: the amyloid nucleation score result was “inactive”.

For the substance WIDFLSRLTIRGSDMYHQEY, the amyloid nucleation score is 0.37 ± 0.29.

In the case of WIERAAAALVLDLLCSKRRA, the amyloid nucleation score entry is “inactive”.

WIGSRGHQCPYRSSVTMMGT: the amyloid nucleation score entry is “inactive”.

Regarding WIKGVRIRPL, the amyloid nucleation score result was “inactive”.

As to WIMWTLAIKIIMCW, the amyloid nucleation score result was “inactive”.

For the substance WIRVDRCGCARVPLGDHVKK, the amyloid nucleation score entry was “inactive”.

For the substance WISEDTRLLHWLLQCVWIRI, the amyloid nucleation score was -0.531 ± 1.4.

Substance WIVLQTSNSRLMQWGAP registered an amyloid nucleation score of 0.618 ± 0.27.

Regarding WIWVVVHFYDLECQLDS, the amyloid nucleation score entry is “inactive”.

For WIYYNAVFHACCVYELSNNA, the amyloid nucleation score was 2.85 ± 0.067.

As to WKRNFIW, the amyloid nucleation score entry is “inactive”.

With WKYRSKRWMMLSASVRLYSS, the amyloid nucleation score entry is “inactive”.

Consider WLFLVN, for which the amyloid nucleation score entry is “inactive”.

On to WLGKYVLVSEYIV, for which the amyloid nucleation score entry is “inactive”.

In the case of WLGWPD, the amyloid nucleation score entry is “inactive”.

WLLLLSK: the amyloid nucleation score entry is “inactive”.

With WLLPQKGLMG, the amyloid nucleation score result is “inactive”.

With WLTYYIDFRVILSFQSVRDY, the amyloid nucleation score result was “inactive”.

On to WLWKVSFK, for which the amyloid nucleation score is 1.41 ± 0.093.

For WLYARISADHDCLLKPELRM, the amyloid nucleation score result is “inactive”.

On to WMVVTMPSLKCGSYASVHGA, for which the amyloid nucleation score entry is “inactive”.

On to WNDRKSYLYSAIAMKARSVY, for which the amyloid nucleation score result was “inactive”.

Turning to WNFWNNFKSLEWEVLARYFF, the amyloid nucleation score result is “inactive”.

WNPYAIARKAIVRGSVKWGV: the amyloid nucleation score entry is “inactive”.

Regarding WNRAVCIMSNIWIMDLPVLK, the amyloid nucleation score result is “inactive”.

As for WPFMNYVNENCSWYSS, the amyloid nucleation score came out at 1.09 ± 0.14.

With WPIIGTLNRTSGSDR, the amyloid nucleation score entry was “inactive”.

Regarding WPVNCMKGSSCNRELFNH, the amyloid nucleation score entry is “inactive”.

As to WQLRQGDLGSHVRRFLQLYR, the amyloid nucleation score entry was “inactive”.

In the case of WQNEMYGRCVLCKLRYNEPD, the amyloid nucleation score entry was “inactive”.

On to WQTDEDRRCKTDFISLF, for which the amyloid nucleation score entry is “inactive”.

WRIDDY: the amyloid nucleation score entry is “inactive”.

WRRCMRYGTASASSSENAHY displayed an amyloid nucleation score of 0.837 ± 0.18.

On to WRRGFVNSRGYNLRFWGHYF, for which the amyloid nucleation score result is “inactive”.

For the substance WSCASSCFY, the amyloid nucleation score entry is “inactive”.

As to WSFMLFSVSYYNQGEAVLPA, the amyloid nucleation score entry is “inactive”.

In the case of WSGNCFNQSKLAWYDHYHQW, the amyloid nucleation score result was “inactive”.

As for WSVVRRAELSNSVKFEDHGM, the amyloid nucleation score entry was “inactive”.

Take WSYNITK: the amyloid nucleation score result was “inactive”.

Turning to WTDVRGMVSSINGRSTSRVP, the amyloid nucleation score result was “inactive”.

Substance WTGLLLCVF had an amyloid nucleation score of -0.093 ± 0.85.

Regarding WTIDTD, the amyloid nucleation score result is “inactive”.

As for WTRESLQYTGNSYGALSTFF, the amyloid nucleation score entry was “inactive”.

In the case of WTSDSRCYMNLKRCRGYTLF, the amyloid nucleation score result was “inactive”.

As for WTVIDYDKTWIYLLASVLYL, the amyloid nucleation score entry was “inactive”.

WVCDRLGRVSLILRL returned an amyloid nucleation score of 1.06 ± 0.2.

Turning to WVEWIWSWKNDVPLVCRASA, the amyloid nucleation score entry was “inactive”.

The substance WVFISKQLVNDVAWPVLCAL had an amyloid nucleation score of -0.17 ± 0.85.

As for WVFSWKMHRSKSKYRSKYLP, the amyloid nucleation score result was “inactive”.

Regarding WVFVDLLSNVVFNGKIVERC, the amyloid nucleation score entry was “inactive”.

For WVHCSPGDRSFTLGTPSFHK, the amyloid nucleation score entry was “inactive”.

With WVRVVFSGSRYRTVCSGSRC, the amyloid nucleation score was -0.788 ± 1.4.

Substance WVVQE displayed an amyloid nucleation score of -0.553 ± 0.93.

Regarding WWAVTKFTAFYMRVIYKIGR, the amyloid nucleation score entry was “inactive”.

As to WWIARIRMHGCCDVYLGQHR, the amyloid nucleation score turned out to be 2.6 ± 0.087.

With WYADICCCQIFRCWKLDRWS, the amyloid nucleation score entry was “inactive”.

As for WYFGCSALYQL, the amyloid nucleation score came out at 1.49 ± 0.099.

As for WYGRLGWRLVRPLGRYFTRS, the amyloid nucleation score result was “inactive”.

Regarding WYRYFGCEDP, the amyloid nucleation score entry was “inactive”.

For WYSTEM, the amyloid nucleation score result is “inactive”.

In the case of WYTNPRDIRYFLVVYKKQN, the amyloid nucleation score entry was “inactive”.

With WYVFPCRDLVDMCCSGRCAV, the amyloid nucleation score result is “inactive”.

The substance YAMYSYFFIVAWFFNRS had an amyloid nucleation score of 0.252 ± 0.39.

As for YAPSVLSCN, the amyloid nucleation score entry was “inactive”.

On to YARVMSVAMSWEDQNSTKKR, for which the amyloid nucleation score worked out at 0.467 ± 0.19.

With YARWDRSKYMTRYCHCCYFL, the amyloid nucleation score result is “inactive”.

Turning to YARYYGCGIWGWWFSNRSLL, the amyloid nucleation score entry was “inactive”.

YAYMYNVCYGDCRCANGVWY returned an amyloid nucleation score of 2.71 ± 0.084.

As to YCCDLYLN, the amyloid nucleation score result is “inactive”.

In the case of YCCNGYPACG, the amyloid nucleation score result is “inactive”.

In turn, YCKIKLIQGNRFNEYISYCD gave an amyloid nucleation score of 2.56 ± 0.054.

Take YCLTLNHAMIRFGMCCHYMC: the amyloid nucleation score entry was “inactive”.

Turning to YCLVV, the amyloid nucleation score result was “inactive”.

In turn, YCMWLPFMVNFH registered an amyloid nucleation score of 2.58 ± 0.057.

As for YCQESRSCWAQSYICEGVSL, the amyloid nucleation score was -0.253 ± 1.1.

For the substance YCQIK, the amyloid nucleation score result was “inactive”.

For YCRSSPTLTFCQYSL, the amyloid nucleation score result was “inactive”.

As to YCVFGWIKAWPGGLVVNEFR, the amyloid nucleation score result is “inactive”.

For the substance YCVLVIFVGFCFMEFENVTQ, the amyloid nucleation score entry was “inactive”.
